Assay results taken from patent publication US20230285578A1 (INDIANA UNIVERSITY RESEARCH AND TECHNOLOGY, published 2023).
Starred links: 1 amine or outer side, 2 acyl side, 3 side chain; linkers in the order of their positions; H or OH if unused. Groups on a side chain read outwards from the residue. No end group written: not given here. *: point of attachment. C18 diacid = O=C(O)CCCCCCCCCCCCCCCCC(=O)*; γGlu = O=C(O)[C@H](CCC(=O)[*:2])N[*:1]; AEEA = NCCOCCOCC(=O)O

Columns and labels:
Test in all cases: cell-based or functional assay
PTH1 receptor [1] = biological target: T1, PTH1 receptor (UniProt Q03431 27-593, limits assumed)
T1 sequence (looked up): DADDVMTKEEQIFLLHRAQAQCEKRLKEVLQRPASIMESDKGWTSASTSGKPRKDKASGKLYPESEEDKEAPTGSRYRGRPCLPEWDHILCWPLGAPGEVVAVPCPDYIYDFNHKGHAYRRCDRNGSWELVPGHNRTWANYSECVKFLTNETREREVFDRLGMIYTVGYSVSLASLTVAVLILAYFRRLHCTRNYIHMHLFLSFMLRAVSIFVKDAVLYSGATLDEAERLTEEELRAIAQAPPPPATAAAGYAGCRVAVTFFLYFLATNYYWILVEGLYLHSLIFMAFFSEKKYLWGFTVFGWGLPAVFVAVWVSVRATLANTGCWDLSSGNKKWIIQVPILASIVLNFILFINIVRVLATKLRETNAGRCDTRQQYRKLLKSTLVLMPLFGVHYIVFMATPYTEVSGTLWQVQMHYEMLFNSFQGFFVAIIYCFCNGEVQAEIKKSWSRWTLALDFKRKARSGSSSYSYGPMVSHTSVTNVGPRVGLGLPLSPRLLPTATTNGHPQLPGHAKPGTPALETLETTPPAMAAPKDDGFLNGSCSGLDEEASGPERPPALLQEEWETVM

PTH1 receptor [2] = biological target: T1, PTH1 receptor; remark: listed apart in the source
PTH1 receptor [3] = biological target: T1, PTH1 receptor; remark: listed apart in the source
PTH1 receptor [4] = biological target: T1, PTH1 receptor; remark: listed apart in the source
PTH1 receptor [5] = biological target: T1, PTH1 receptor; remark: listed apart in the source
PTH1 receptor [6] = biological target: T1, PTH1 receptor; remark: listed apart in the source
PTH1 receptor, Q03431 = biological target: T2, PTH1 receptor, Q03431
T2 chain: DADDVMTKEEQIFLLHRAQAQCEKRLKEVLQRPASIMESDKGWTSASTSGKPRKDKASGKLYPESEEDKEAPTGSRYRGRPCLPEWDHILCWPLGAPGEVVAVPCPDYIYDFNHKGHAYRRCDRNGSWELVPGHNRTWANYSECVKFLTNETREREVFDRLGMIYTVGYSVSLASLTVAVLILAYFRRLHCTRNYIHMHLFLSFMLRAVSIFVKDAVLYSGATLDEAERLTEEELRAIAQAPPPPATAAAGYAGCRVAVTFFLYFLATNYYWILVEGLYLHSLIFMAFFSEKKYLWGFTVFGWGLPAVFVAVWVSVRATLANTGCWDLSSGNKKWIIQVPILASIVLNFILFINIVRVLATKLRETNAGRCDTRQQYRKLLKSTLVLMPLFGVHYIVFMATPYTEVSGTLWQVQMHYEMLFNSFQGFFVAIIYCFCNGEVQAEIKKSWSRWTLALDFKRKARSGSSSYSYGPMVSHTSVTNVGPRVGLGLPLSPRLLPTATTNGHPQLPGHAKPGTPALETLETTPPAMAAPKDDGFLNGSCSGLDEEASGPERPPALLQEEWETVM

PTH1 receptor [7] = biological target: T1, PTH1 receptor; remark: listed apart in the source

SVSEIQLMHNLGKHLNSMERVEWLRKKLQDVHNFX (Lys35 side chain acylated with γE-COC16H32CO2H (C18 diacid); C-terminal amide) [PTH(1-35)a, K35(γE-diacidC18)]
Potency EC50 (cAMP-responsive luciferase reporter, HEK293 cells co-transfected with the PTH1 receptor) (PTH1 receptor [1]): 2.9 nM

B1: PTH(1-35)a, dK-1(γE-diacidC18), N(Me)G0, K35(γE-diacidC18) (peptide)
peptide: XXSVSEIQLMHNLGKHLNSMERVEWLRKKLQDVHNFX
modifications: d-Lys at position -1 with side chain acylated with γE-COC16H32CO2H; N-methyl-Gly (sarcosine) at position 0; Lys35 side chain acylated with γE-COC16H32CO2H; C-terminal amide
Potency EC50 (cAMP-responsive luciferase reporter, HEK293 cells co-transfected with the PTH1 receptor) (PTH1 receptor [1]): 200 nM

B2: PTH(1-33), K33(γE-2xOEG-γE-diacidC18) (peptide)
peptide: SVSEIQLMHNLGKHLNSMERVEWLRKKLQDVHX
modifications: Lys33 side chain acylated with γE-(miniPEG)2-γE-COC16H32CO2H; C-terminal free acid
EC50 pM (cAMP Hunter Teriparatide Bioassay, CHO-K1 PTHR1 cells; FIG. 8A) (PTH1 receptor [2]): 31 pM
EC50 pM (cAMP Hunter Teriparatide Bioassay, CHO-K1 PTHR1 cells; FIG. 11) (PTH1 receptor [3]): 10 pM
EC50 pM (cAMP Hunter Teriparatide Bioassay, CHO-K1 PTHR1 cells; FIG. 12) (PTH1 receptor [4]): 36.6 pM
EC50 pM (cAMP Hunter Teriparatide Bioassay, CHO-K1 PTHR1 cells; FIG. 13A) (PTH1 receptor [5]): 10.7 pM
EC50 pM (cAMP Hunter Teriparatide Bioassay, CHO-K1 PTHR1 cells; FIG. 13B) (PTH1 receptor [6]): 19.3 pM

SVSEIQLMHNLGKHLNSXERVEWLRKKLQDVHX (site-specifically oxidised to methionine sulfoxide (position not given)) [SEQ ID NO: 110]
EC50 pM (cAMP Hunter Teriparatide Bioassay, CHO-K1 PTHR1 cells; FIG. 12) (PTH1 receptor [4]): 41.7 pM

B3: PTH(1-34), dK-1(γE-diacidC18), N(Me)G0 (peptide)
peptide: XXSVSEIQLMHNLGKHLNSMERVEWLRKKLQDVHNF
modifications: d-Lys at position -1 with side chain acylated with γE-COC16H32CO2H; N-methyl-Gly (sarcosine) at position 0; C-terminal free acid
Potency EC50 (cAMP-responsive luciferase reporter, HEK293 cells co-transfected with the PTH1 receptor) (PTH1 receptor [1]): 45.5 nM

SVSEIELMHNLGKHLNSMERVEWLRKKLQDVHK([γGlu-miniPEG-miniPEG-γGlu-C18 diacid]) (ends and bridges not checked) [SEQ ID NO: 118]
EC50 pM (cAMP Hunter Teriparatide Bioassay, CHO-K1 PTHR1 cells; FIG. 13A) (PTH1 receptor, Q03431): 80.3 pM

B4: PTH(1-33), A8, K33(γE-2xOEG-γE-diacidC18) (peptide)
peptide: SVSEIQLAHNLGKHLNSMERVEWLRKKLQDVHK([γGlu-AEEA-AEEA-γGlu-C18 diacid])-OH
modifications: N-terminus assumed
SMILES: CC[C@H](C)[C@H](NC(=O)[C@H](CCC(=O)O)NC(=O)[C@H](CO)NC(=O)[C@@H](NC(=O)[C@@H](N)CO)C(C)C)C(=O)N[C@@H](CCC(N)=O)C(=O)N[C@@H](CC(C)C)C(=O)N[C@@H](C)C(=O)N[C@@H](Cc1c[nH]cn1)C(=O)N[C@@H](CC(N)=O)C(=O)N[C@@H](CC(C)C)C(=O)NCC(=O)N[C@@H](CCCCN)C(=O)N[C@@H](Cc1c[nH]cn1)C(=O)N[C@@H](CC(C)C)C(=O)N[C@@H](CC(N)=O)C(=O)N[C@@H](CO)C(=O)N[C@@H](CCSC)C(=O)N[C@@H](CCC(=O)O)C(=O)N[C@@H](CCCNC(=N)N)C(=O)N[C@H](C(=O)N[C@@H](CCC(=O)O)C(=O)N[C@@H](Cc1c[nH]c2ccccc12)C(=O)N[C@@H](CC(C)C)C(=O)N[C@@H](CCCNC(=N)N)C(=O)N[C@@H](CCCCN)C(=O)N[C@@H](CCCCN)C(=O)N[C@@H](CC(C)C)C(=O)N[C@@H](CCC(N)=O)C(=O)N[C@@H](CC(=O)O)C(=O)N[C@H](C(=O)N[C@@H](Cc1c[nH]cn1)C(=O)N[C@@H](CCCCNC(=O)CC[C@H](NC(=O)COCCOCCNC(=O)COCCOCCNC(=O)CC[C@H](NC(=O)CCCCCCCCCCCCCCCCC(=O)O)C(=O)O)C(=O)O)C(=O)O)C(C)C)C(C)C
in vitro potency (fold reduction against the analog without A8) (PTH1 receptor [7]): ~100 fold

SVSEIQLMHNLGKHLNSMERVEWLRKKLEDVHK([γGlu-miniPEG-miniPEG-γGlu-C18 diacid]) (ends and bridges not checked) [SEQ ID NO: 124]
EC50 pM (cAMP Hunter Teriparatide Bioassay, CHO-K1 PTHR1 cells; FIG. 13B) (PTH1 receptor, Q03431): 43.1 pM

SVSEIQLMHNLGKHLDSMERVEWLRKKLQDVHK([γGlu-miniPEG-miniPEG-γGlu-C18 diacid]) (ends and bridges not checked) [SEQ ID NO: 122]
EC50 pM (cAMP Hunter Teriparatide Bioassay, CHO-K1 PTHR1 cells; FIG. 13B) (PTH1 receptor, Q03431): 14.3 pM

SVSEIQLMHDLGKHLNSMERVEWLRKKLQDVHK([γGlu-miniPEG-miniPEG-γGlu-C18 diacid]) (ends and bridges not checked) [SEQ ID NO: 120]
EC50 pM (cAMP Hunter Teriparatide Bioassay, CHO-K1 PTHR1 cells; FIG. 13A) (PTH1 receptor, Q03431): 10.9 pM
